Biological target: T1, Angptl2-FLAG (human, UniProt Q9UKU9 23-493)
T1 sequence (looked up): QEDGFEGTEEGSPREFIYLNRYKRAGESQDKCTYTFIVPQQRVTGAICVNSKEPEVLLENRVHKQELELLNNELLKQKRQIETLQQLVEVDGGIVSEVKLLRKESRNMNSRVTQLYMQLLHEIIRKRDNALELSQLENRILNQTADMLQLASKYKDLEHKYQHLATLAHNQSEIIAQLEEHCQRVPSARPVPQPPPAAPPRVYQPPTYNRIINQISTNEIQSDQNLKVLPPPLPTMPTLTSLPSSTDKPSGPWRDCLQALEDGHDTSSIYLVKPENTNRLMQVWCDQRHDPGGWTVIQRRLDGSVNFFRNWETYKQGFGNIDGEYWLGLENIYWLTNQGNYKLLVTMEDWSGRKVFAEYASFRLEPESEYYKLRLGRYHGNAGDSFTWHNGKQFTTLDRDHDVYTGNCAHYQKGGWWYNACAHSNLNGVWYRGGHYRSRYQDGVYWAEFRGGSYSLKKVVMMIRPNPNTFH
Test: co-IP

binding result: binds
B1: LILRB2 extracellular domain (ECD) fused to human IgG-Fc (Fc fusion, UniProt Q8N423 22-460, looked up)
chain: QTGTIPKPTLWAEPDSVITQGSPVTLSCQGSLEAQEYRLYREKKSASWITRIRPELVKNGQFHIPSITWEHTGRYGCQYYSRARWSELSDPLVLVMTGAYPKPTLSAQPSPVVTSGGRVTLQCESQVAFGGFILCKEGEDEHPQCLNSQPHARGSSRAIFSVGPVSPNRRWSHRCYGYDLNSPYVWSSPSDLLELLVPGVSKKPSLSVQPGPVMAPGESLTLQCVSDVGYDRFVLYKEGERDLRQLPGRQPQAGLSQANFTLGPVSRSYGGQYRCYGAHNLSSECSAPSDPLDILITGQIRGTPFISVQPGPTVASGENVTLLCQSWRQFHTFLLTKAGAADAPLRLRSIHEYPKYQAEFPMSPVTSAHAGTYRCYGSLNSDPYLLSHPSEPLELVVSGPSMGSSPPPTGPISTPGPEDQPLTPTGSDPQSGLGRHLGV

Source: paper PMC3367397 (Nature, 2012)
